Data set [1] deals with VDR;RXRα ΔNTD;MED1 (50-660) (Homo sapiens;Homo sapiens;Homo sapiens, UniProt P11473;P19793;Q15648 1-427;130-462;50-660, ||). Kind of data set: SEC-MALLS.
A further data set concerns the target VDR;RXRα ΔNTD (Homo sapiens;Homo sapiens, UniProt P11473;P19793 1-427;130-462, |). Kind of data set: ITC.
The target of another data set is MED1 (50–660) (human, UniProt Q15648 50-660). Kind of data set: HDX-MS.
MED1 (50–660), sequence (Q15648 50-660): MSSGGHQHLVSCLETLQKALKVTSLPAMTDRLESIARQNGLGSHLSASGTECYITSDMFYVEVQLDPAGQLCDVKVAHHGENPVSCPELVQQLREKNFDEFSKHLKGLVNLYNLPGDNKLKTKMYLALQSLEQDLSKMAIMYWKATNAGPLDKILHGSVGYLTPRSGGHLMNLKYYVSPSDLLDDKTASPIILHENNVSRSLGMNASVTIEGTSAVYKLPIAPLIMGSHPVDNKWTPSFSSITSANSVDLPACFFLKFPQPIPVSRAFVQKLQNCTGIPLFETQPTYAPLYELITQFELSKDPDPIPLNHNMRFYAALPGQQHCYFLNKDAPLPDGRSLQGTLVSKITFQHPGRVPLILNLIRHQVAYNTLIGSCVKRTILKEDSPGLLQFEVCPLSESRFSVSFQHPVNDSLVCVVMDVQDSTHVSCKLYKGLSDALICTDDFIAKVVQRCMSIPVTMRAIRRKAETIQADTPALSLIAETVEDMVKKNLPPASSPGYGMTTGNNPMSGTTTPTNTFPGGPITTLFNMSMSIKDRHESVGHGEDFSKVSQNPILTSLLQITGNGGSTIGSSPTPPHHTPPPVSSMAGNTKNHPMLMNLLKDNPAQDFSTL

VDR;RXRα ΔNTD;MED1 (50-660), sequence (Q15648 50-660, stated change not applied, one chain of several): as the sequence (Q15648 50-660) above

B1: rat Nppa (rANF1) DR3 VDRE (dsDNA)
DNA 1: AGAGGTCATGAAGGACATT
DNA 2: AATGTCCTTCATGACCTCT
As to B1, the binding result (in data set [1]; with VDR;RXRα ΔNTD) was “binds” throughout.

B2: full-length HsVDR (1–427) (receptor)
chain: MEAMAASTSLPDPGDFDRNVPRICGVCGDRATGFHFNAMTCEGCKGFFRRSMKRKALFTCPFNGDCRITKDNRRHCQACRLKRCVDIGMMKEFILTDEEVQRKREMILKRKEEEALKDSLRPKLSEEQQRIIAILLDAHHKTYDPTYSDFCQFRPPVRVNDGGGSHPSRPNSRHTPSFSGDSSSSCSDHCITSSDMMDSSSFSNLDLSEEDSDDPSVTLELSQLSMLPHLADLVSYSIQKVIGFAKMIPGFRDLTSEDQIVLLKSSAIEVIMLRSNESFTMDDMSWTCGNQDYKYRVSDVTKAGHSLELIEPLIKFQVGLKKLNLHEEEHVLLMAICIVSPDRPGVQDAALIEAIQDRLSNTLQTYIRCRHPPPGSHLLYAKMIQKLADLRSLNEEHSKQYRCLSFQPECSMKLTPLVLEVFGNEIS
With B2, the binding result with MED1 (50–660) is reported as “binds”.

B3: HsRXRαΔNTD (130–462) (receptor)
chain: FTKHICAICGDRSSGKHYGVYSCEGCKGFFKRTVRKDLTYTCRDNKDCLIDKRQRNRCQYCRYQKCLAMGMKREAVQEERQRGKDRNENEVESTSSANEDMPVERILEAELAVEPKTETYVEANMGLNPSSPNDPVTNICQAADKQLFTLVEWAKRIPHFSELPLDDQVILLRAGWNELLIASFSHRSIAVKDGILLATGLHVHRNSAHSAGVGAIFDRVLTELVSKMRDMQMDKTELGCLRAIVLFNPDSKGLSNPAEVEALREKVYASLEAYCKHKYPEQPGRFAKLLLRLPALRSIGLKCLEHLFFFKLIGDTPIDTFLMEMLEAPHQMT
Turning to B3, in the data set with MED1 (50–660), the binding result was “binds”.

These data come from PMC7641746 (Nucleic Acids Research, 2020).
